Assay results as given in patent publication US20140315800A1 (published 2014).
Positions of bridges follow the written chain, without caps; N, C: chain ends. No end group written: not given here. *: point of attachment. βGlcNAc = CC(=O)N[C@@H]1[C@@H](O)[C@H](O)[C@@H](CO)O[C@H]1*; diGlcNAc = diGlcNAc sugar chain; disialo = disialo sugar chain; GlcNAc = N-acetylglucosamine

Legend:
SSTR2 = SSTR2 (Human, UniProt P30874 1-369); assay: cell-based or functional assay
SSTR4 [1] = target: T1, SSTR4 (Human, UniProt P31391 1-388); assay: cell-based or functional assay
SSTR3 [2] = target: T2, SSTR3 (Human, UniProt P32745 1-418); assay: radioligand competition, membranes
SSTR1-SSTR5 = assay: radioligand competition, membranes
SSTR5 = SSTR5 (Human, UniProt P35346 1-364); assay: radioligand competition, membranes
SSTR1 [3] = target: T3, SSTR1 (Human, UniProt P30872 1-391); assay: cell-based or functional assay
SSTR3 [4] = target: T2, SSTR3; assay: cell-based or functional assay
SSTR1 [5] = target: T3, SSTR1; assay: radioligand competition, membranes
SSTR4 [6] = target: T1, SSTR4; assay: cell-based or functional assay; remark: listed apart in the source

T1 sequence (P31391 whole entry): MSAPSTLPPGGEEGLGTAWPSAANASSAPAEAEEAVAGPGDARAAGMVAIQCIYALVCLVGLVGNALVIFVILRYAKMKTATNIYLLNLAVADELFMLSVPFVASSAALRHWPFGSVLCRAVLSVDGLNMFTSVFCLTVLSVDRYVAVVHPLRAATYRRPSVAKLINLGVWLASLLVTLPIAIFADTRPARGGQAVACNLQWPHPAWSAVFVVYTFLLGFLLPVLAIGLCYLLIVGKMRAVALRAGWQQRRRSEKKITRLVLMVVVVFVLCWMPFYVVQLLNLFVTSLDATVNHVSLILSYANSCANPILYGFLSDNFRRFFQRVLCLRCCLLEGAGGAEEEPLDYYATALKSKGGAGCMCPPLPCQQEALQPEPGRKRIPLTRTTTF
Chain of SSTR2 (P30874 whole entry): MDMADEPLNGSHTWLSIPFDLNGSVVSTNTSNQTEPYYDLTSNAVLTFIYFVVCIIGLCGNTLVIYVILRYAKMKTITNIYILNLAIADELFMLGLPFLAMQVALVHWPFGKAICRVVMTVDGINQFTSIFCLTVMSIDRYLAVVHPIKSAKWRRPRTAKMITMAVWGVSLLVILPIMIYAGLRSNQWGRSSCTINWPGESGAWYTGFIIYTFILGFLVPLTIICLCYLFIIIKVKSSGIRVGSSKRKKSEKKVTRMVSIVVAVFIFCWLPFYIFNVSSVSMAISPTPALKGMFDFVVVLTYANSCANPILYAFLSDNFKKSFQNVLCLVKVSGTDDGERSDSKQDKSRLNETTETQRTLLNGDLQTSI
T2 sequence (P32745 whole entry): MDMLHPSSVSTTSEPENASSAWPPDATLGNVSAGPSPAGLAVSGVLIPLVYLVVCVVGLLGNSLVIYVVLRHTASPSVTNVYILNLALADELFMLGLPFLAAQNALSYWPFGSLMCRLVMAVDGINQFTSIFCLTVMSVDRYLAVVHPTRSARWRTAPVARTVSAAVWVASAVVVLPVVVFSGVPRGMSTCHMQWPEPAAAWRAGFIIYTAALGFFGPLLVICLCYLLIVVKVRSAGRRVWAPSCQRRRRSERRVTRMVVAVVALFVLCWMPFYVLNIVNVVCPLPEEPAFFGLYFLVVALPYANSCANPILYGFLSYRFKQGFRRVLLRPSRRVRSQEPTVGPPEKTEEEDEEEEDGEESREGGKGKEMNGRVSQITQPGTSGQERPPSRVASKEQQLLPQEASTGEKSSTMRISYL
T3 sequence (P30872 whole entry): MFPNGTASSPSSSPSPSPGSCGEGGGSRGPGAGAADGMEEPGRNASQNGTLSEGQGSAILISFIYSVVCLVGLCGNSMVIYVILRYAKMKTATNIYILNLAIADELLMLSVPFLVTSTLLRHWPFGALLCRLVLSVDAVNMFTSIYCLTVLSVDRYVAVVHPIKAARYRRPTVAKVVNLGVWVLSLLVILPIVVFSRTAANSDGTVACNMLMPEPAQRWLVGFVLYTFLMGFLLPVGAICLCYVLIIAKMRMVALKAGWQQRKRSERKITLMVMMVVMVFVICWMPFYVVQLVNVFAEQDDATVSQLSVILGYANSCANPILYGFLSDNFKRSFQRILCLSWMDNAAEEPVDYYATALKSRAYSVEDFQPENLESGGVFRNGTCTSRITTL
Chain of SSTR5 (P35346 whole entry): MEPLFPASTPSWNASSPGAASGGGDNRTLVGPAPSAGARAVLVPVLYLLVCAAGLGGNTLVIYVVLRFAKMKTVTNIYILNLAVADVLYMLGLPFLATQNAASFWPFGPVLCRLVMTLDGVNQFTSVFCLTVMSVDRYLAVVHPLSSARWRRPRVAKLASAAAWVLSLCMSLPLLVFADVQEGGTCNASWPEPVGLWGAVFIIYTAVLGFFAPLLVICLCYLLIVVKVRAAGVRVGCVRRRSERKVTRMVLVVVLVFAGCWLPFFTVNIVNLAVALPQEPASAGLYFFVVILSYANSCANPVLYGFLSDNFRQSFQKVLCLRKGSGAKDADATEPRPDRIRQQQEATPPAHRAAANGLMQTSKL

## C(βGlcNAc)ANSNPAMAPRERKAGCKNFFWKTFTSC (disulfide 17-28) [S1C(GlcNAc)-SRIF28]
SSTR2
  IC50 of agonist activity (cAMP): 0.04 nM

## C(diGlcNAc)ANSNPAMAPRERKAGCKNFFWKTFTSC (disulfide 17-28) [S1C(diGlcNAc)-SRIF28]
SSTR4 [1]
  IC50 of agonist activity (cAMP): 0.05 nM

## SANSC(disialo)PAMC(disialo)PRERKAGCKNFFWKTFTSC (disulfide 17-28) [N5C(disialo)•A9C(disialo)-SRIF28]
SSTR3 [2]
  binding result: binds

## C(disialo sugar chain)ANSC(disialo sugar chain)PAMAPRERKAGCKNFFWKTFTSC (disulfide 17-28) [S1C(disialo)•N5C(disialo)-SRIF28]
SSTR1-SSTR5
  ratio of Ki to the Ki of unglycosylated SRIF14: 15.7

## C(disialo)ANSNPAMAPRERKAGCKC(GlcNAc)FFWKTFTSC (disulfide 17-28) [S1C(disialo)•N19C(GlcNAc)-SRIF28]
SSTR2
  IC50 of agonist activity (cAMP): 0.08 nM

## SANSNPAMAPRERKAGCKNFFWKTFC(disialo sugar chain)SC (disulfide 17-28) [T26C(disialo)-SRIF28]
SSTR5
  IC50: 400 nM

B1: S1-3C(asialo)-SRIF28 (peptide)
peptide: CCCANSNPAMAPRERKAGCKNFFWKTFTSC
modifications: Ser 1 replaced by three consecutive Cys each with an asialo sugar chain; disulfide Cys17-Cys28 (SRIF28 numbering)
SSTR4 [1]
  IC50 of agonist activity (cAMP): 0.1 nM

B2: S1-5C(disialo)-SRIF28 (peptide)
peptide: CCCCCANSNPAMAPRERKAGCKNFFWKTFTSC
modifications: Ser 1 replaced by five consecutive Cys each with a disialo sugar chain; disulfide Cys17-Cys28 (SRIF28 numbering)
SSTR1 [3]
  IC50 of agonist activity (cAMP): 18 nM
SSTR2
  IC50 of agonist activity (cAMP): 0.81 nM
SSTR4 [1]
  IC50 of agonist activity (cAMP): 0.27 nM
SSTR3 [4]
  IC50 of agonist activity (cAMP): 2 nM

B3: C(disialo)-SRIF14 (peptide)
peptide: CAGCKNFFWKTFTSC
modifications: disialo sugar chain on Cys added at the N-terminus of SRIF14; disulfide Cys17-Cys28 (SRIF28 numbering)
SSTR4 [1]
  IC50 of agonist activity (cAMP): 0.1 nM

## C(disialo)KAGCKNFFWKTFTSC (disulfide 5-16) [C(disialo)-K-SRIF14]
SSTR3 [4]
  IC50 of agonist activity (cAMP): 0.1 nM

## C(disialo)C(disialo)C(disialo)C(disialo)C(disialo)C(disialo)C(disialo)C(disialo)C(disialo)C(disialo)ANSNPAMAPRERKAGCKNFFWKTFTSC (disulfide 26-37) [S1-10C(disialo)-SRIF28]
SSTR5
  IC50: 34.8 nM

B4: 3C(disialo)-R-K-SRIF14 (peptide)
peptide: CCCRKAGCKNFFWKTFTSC
modifications: three N-terminal Cys each with a disialo sugar chain (Cys-Cys-Cys-Arg-Lys- added to SRIF14); disulfide Cys17-Cys28 (SRIF28 numbering)
SSTR1 [5]
  Ki: 270 nM

## C(disialo)RKAGCKNFFWKTFTSC (disulfide 6-17) [C(disialo)-R-K-SRIF14]
SSTR4 [6]
  IC50 of cAMP production suppression (agonist activity): 0.05 nM
